Molecular target: Aβ oligomers, P05067
Experiment: SPR (Biacore), 3F fixed on CM5 chip, Aβ oligomers in flow
Conditions: remark: other sources report otherwise

Aβ oligomers, P05067, sequence (P05067 672-713): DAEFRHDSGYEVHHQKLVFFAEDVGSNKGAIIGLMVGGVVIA

Kd: 0.847 nM
B1: antibody 3F (scFv)
scFv: MAEVQLLESGGGLVQPGGSLRLSCAASGFTFSSYAMSWVRQAPGKGLEWVSGISNLGLTTGYADSVKGRFTISRDNSKNTLYLQMNSLRAEDTAVYYCAKTTSRFDYWGQGTLVTVSSGGGGSGGGGSGGGGSTDIQMTQSPSSLSASVGDRVTITCRASQSISSYLNWYQQKPGKAPKLLIYKASYLQSGVPSRFSGSGSGTDFTLTISSLQPEDFATYYCQNSAVRPVTFGQGTKVEIKR

Source: EP4570823A1
